# Test results from publication PMC9482650, “Quantitative fragmentomics allow affinity mapping of interactomes” (Nature Communications, 2022).
# T1: APBA1_1, Q02410
# T1 sequence (Q02410 651-752, limits assumed, looked up): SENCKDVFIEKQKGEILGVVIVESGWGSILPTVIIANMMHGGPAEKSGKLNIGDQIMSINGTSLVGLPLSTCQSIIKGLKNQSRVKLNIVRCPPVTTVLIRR
# T2: APBA2_2, Q99767
# T2 sequence (Q99767 654-744, limits assumed, looked up): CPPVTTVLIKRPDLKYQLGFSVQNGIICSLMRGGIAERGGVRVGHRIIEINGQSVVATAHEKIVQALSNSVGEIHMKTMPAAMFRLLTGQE
# T3: ARHGEF11, O15085
# T3 sequence (O15085 42-136, limits assumed, looked up): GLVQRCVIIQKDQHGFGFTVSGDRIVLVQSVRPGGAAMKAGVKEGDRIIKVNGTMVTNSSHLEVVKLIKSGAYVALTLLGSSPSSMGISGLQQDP
# T4: CARD11, Q9BXL7
# T4 sequence (Q9BXL7 662-765, limits assumed, looked up): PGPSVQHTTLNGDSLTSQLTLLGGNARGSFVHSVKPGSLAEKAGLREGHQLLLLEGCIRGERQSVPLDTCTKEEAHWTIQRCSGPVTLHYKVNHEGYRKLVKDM
# T5: DLG3_1, Q92796
# T5 sequence (Q92796 125-227, limits assumed, looked up): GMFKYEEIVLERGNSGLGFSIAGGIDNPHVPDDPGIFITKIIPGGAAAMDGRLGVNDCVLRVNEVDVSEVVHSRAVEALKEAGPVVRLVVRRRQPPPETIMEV
# T6: GRIP1_2, Q9Y3R0
# T6 sequence (Q9Y3R0 145-248, limits assumed, looked up): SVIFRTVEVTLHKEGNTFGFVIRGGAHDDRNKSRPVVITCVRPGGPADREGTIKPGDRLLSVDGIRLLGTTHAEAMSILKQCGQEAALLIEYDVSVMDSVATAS
# T7: LNX2_2, Q8N448
# T7 sequence (Q8N448 334-432, limits assumed, looked up): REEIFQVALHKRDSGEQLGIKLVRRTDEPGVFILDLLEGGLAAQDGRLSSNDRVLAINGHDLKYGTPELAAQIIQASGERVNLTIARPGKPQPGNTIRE
# T8: MPDZ_5, O75970
# T8 sequence (O75970 695-796, limits assumed, looked up): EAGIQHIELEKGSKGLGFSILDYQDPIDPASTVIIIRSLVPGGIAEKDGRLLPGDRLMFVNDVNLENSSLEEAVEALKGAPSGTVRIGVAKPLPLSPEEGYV
# T9: MPP2, Q14168
# T9 sequence (Q14168 180-250, limits assumed, looked up): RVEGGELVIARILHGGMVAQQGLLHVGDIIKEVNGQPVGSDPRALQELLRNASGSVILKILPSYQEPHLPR
# T10: RADIL, Q96JH8
# T10 sequence (Q96JH8 971-1071, limits assumed, looked up): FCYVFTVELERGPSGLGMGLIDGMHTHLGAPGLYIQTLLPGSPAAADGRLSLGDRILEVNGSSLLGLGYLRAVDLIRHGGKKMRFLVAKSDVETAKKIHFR
# T11: SNTB1, Q13884
# T11 sequence (Q13884 107-205, limits assumed, looked up): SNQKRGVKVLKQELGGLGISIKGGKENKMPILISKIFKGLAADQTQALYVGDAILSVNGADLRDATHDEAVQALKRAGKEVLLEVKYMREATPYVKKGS
# T12: TX1BP3, O14907
# T12 sequence (O14907 10-122, limits assumed, looked up): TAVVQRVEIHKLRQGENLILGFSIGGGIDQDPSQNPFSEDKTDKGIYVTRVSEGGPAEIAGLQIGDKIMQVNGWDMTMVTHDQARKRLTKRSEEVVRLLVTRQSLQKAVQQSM
# Experiments:
# Assay in all cases: holdup assay
# Set-up in all cases: key: below the threshold = too weak to quantify, mostly under pKd 3.1 to 4
# Settings in all cases: plain residues with an end cap or a label only (N-terminal biotin on a linker: ado-ado)
# AHNAK1, Q09666 = target: AHNAK1, Q09666
# Chain of AHNAK1, Q09666 (Q09666 4-100): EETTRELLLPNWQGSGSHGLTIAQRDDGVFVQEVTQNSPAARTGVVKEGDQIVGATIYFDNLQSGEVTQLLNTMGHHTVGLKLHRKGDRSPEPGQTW
# APBA1_1, Q02410 = target: T1, APBA1_1, Q02410
# APBA2_2, Q99767 = target: T2, APBA2_2, Q99767
# ARHGEF11, O15085 = target: T3, ARHGEF11, O15085
# CARD11, Q9BXL7 = target: T4, CARD11, Q9BXL7
# DLG1_1, Q12959 = target: DLG1_1, Q12959
# DLG1_3, Q12959 = target: DLG1_3, Q12959
# DLG2_3, Q15700 = target: DLG2_3, Q15700
# DLG3_1, Q92796 = target: T5, DLG3_1, Q92796
# DLG4_2, P78352 = target: DLG4_2, P78352
# Chain of DLG4_2, P78352 (P78352 155-259): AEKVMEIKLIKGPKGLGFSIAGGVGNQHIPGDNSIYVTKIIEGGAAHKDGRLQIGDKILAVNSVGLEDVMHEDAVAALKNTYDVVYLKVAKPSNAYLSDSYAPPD
# GRIP1_2, Q9Y3R0 = target: T6, GRIP1_2, Q9Y3R0
# Inadl_10, Q8NI35 = target: Inadl_10, Q8NI35
# Chain of Inadl_10, Q8NI35 (Q8NI35 1673-1763): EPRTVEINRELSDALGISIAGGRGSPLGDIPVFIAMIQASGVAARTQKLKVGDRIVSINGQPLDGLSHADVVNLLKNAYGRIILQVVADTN
# LAP2, Q96RT1 = target: LAP2, Q96RT1
# Chain of LAP2, Q96RT1 (Q96RT1 other isoform, or with tags, fused parts or gaps): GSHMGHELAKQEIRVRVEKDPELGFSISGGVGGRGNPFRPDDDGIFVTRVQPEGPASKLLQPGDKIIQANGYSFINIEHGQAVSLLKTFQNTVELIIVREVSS
# LNX1_2, Q8TBB1 = target: LNX1_2, Q8TBB1
# Chain of LNX1_2, Q8TBB1 (Q8TBB1 371-470): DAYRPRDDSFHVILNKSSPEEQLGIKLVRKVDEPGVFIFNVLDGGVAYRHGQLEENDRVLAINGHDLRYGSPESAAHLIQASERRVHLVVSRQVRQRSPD
# LNX2_2, Q8N448 = target: T7, LNX2_2, Q8N448
# MAGI2_4, Q86UL8 = target: MAGI2_4, Q86UL8
# Chain of MAGI2_4, Q86UL8 (Q86UL8 772-865): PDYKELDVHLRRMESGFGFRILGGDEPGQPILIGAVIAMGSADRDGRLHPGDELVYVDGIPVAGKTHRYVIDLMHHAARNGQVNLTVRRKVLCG
# MAGI3_2, Q5TCQ9 = target: MAGI3_2, Q5TCQ9
# Chain of MAGI3_2, Q5TCQ9 (Q5TCQ9 398-503): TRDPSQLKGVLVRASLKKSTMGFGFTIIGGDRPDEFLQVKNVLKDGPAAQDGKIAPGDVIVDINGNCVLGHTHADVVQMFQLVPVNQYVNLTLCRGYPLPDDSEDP
# MPDZ_5, O75970 = target: T8, MPDZ_5, O75970
# MPP2, Q14168 = target: T9, MPP2, Q14168
# PDZRN4_1, Q6ZMN7 = target: PDZRN4_1, Q6ZMN7
# Chain of PDZRN4_1, Q6ZMN7 (Q6ZMN7 213-318): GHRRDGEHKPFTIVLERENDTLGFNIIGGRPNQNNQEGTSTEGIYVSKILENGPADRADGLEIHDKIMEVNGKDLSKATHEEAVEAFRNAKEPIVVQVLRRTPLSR
# PICK1, Q9NRD5 = target: PICK1, Q9NRD5
# Chain of PICK1, Q9NRD5 (Q9NRD5 17-115): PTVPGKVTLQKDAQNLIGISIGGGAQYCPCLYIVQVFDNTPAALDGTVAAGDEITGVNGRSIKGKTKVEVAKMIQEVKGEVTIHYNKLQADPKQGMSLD
# RADIL, Q96JH8 = target: T10, RADIL, Q96JH8
# SNTB1, Q13884 = target: T11, SNTB1, Q13884
# TJP1_2, Q07157 = target: TJP1_2, Q07157
# Chain of TJP1_2, Q07157 (Q07157 181-274): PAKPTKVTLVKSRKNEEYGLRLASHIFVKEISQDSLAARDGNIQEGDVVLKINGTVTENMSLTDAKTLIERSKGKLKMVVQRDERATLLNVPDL
# TJP2_1, Q9UDY2 = target: TJP2_1, Q9UDY2
# Chain of TJP2_1, Q9UDY2 (Q9UDY2 24-128): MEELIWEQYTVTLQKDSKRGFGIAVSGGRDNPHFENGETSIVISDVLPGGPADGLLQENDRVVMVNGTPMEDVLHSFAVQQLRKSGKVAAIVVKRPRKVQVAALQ
# TX1BP3, O14907 = target: T12, TX1BP3, O14907
Binder,"pKd (AHNAK1, Q09666)","pKd (APBA1_1, Q02410)","pKd (APBA2_2, Q99767)","pKd (ARHGEF11, O15085)","pKd (CARD11, Q9BXL7)","pKd (DLG1_1, Q12959)","pKd (DLG1_3, Q12959)","pKd (DLG2_3, Q15700)","pKd (DLG3_1, Q92796)","pKd (DLG4_2, P78352)","pKd (GRIP1_2, Q9Y3R0)","pKd (Inadl_10, Q8NI35)","pKd (LAP2, Q96RT1)","pKd (LNX1_2, Q8TBB1)","pKd (LNX2_2, Q8N448)","pKd (MAGI2_4, Q86UL8)","pKd (MAGI3_2, Q5TCQ9)","pKd (MPDZ_5, O75970)","pKd (MPP2, Q14168)","pKd (PDZRN4_1, Q6ZMN7)",other results
"CLREWCDAFL [BANF1, O75531]",below the threshold,3.72,below the threshold,3.49,below the threshold,below the threshold,below the threshold,3.61,below the threshold,below the threshold,below the threshold,below the threshold,3.69,below the threshold,below the threshold,3.73,below the threshold,below the threshold,below the threshold,below the threshold,"pKd (PICK1, Q9NRD5): below the threshold; pKd (RADIL, Q96JH8): 3.85; pKd (SNTB1, Q13884): below the threshold; pKd (TJP1_2, Q07157): below the threshold; pKd (TJP2_1, Q9UDY2): below the threshold; pKd (TX1BP3, O14907): 4.62"
"GSGAVEMESV [AQP6, Q13520]",below the threshold,below the threshold,below the threshold,below the threshold,below the threshold,below the threshold,below the threshold,below the threshold,below the threshold,below the threshold,below the threshold,below the threshold,below the threshold,below the threshold,3.49,below the threshold,below the threshold,below the threshold,below the threshold,below the threshold,"pKd (PICK1, Q9NRD5): below the threshold; pKd (RADIL, Q96JH8): 3.56; pKd (SNTB1, Q13884): below the threshold; pKd (TJP1_2, Q07157): below the threshold; pKd (TJP2_1, Q9UDY2): below the threshold; pKd (TX1BP3, O14907): below the threshold"

# Now from value to binder, other results behind:
"pKd (AHNAK1, Q09666)","pKd (APBA1_1, Q02410)","pKd (APBA2_2, Q99767)","pKd (ARHGEF11, O15085)","pKd (CARD11, Q9BXL7)","pKd (DLG1_1, Q12959)","pKd (DLG1_3, Q12959)","pKd (DLG2_3, Q15700)","pKd (DLG3_1, Q92796)","pKd (DLG4_2, P78352)","pKd (GRIP1_2, Q9Y3R0)","pKd (Inadl_10, Q8NI35)","pKd (LAP2, Q96RT1)","pKd (LNX1_2, Q8TBB1)","pKd (LNX2_2, Q8N448)","pKd (MAGI2_4, Q86UL8)","pKd (MAGI3_2, Q5TCQ9)","pKd (MPDZ_5, O75970)","pKd (MPP2, Q14168)","pKd (PDZRN4_1, Q6ZMN7)",Binder,other results
below the threshold,below the threshold,below the threshold,4.06,below the threshold,4.83,4.01,4.35,4.21,4.97,below the threshold,below the threshold,below the threshold,3.54,4.69,4.43,4.79,below the threshold,below the threshold,below the threshold,"PPYRHRNTVV [ERBB4, Q15303]","pKd (PICK1, Q9NRD5): below the threshold; pKd (RADIL, Q96JH8): 4.21; pKd (SNTB1, Q13884): 5; pKd (TJP1_2, Q07157): below the threshold; pKd (TJP2_1, Q9UDY2): 3.81; pKd (TX1BP3, O14907): 4.13"
below the threshold,below the threshold,below the threshold,3.74,below the threshold,below the threshold,below the threshold,below the threshold,below the threshold,below the threshold,below the threshold,below the threshold,below the threshold,below the threshold,below the threshold,below the threshold,4.18,below the threshold,below the threshold,3.53,"SARSRLSSNL [HCN2, Q9UL51]","pKd (PICK1, Q9NRD5): below the threshold; pKd (RADIL, Q96JH8): below the threshold; pKd (SNTB1, Q13884): below the threshold; pKd (TJP1_2, Q07157): below the threshold; pKd (TJP2_1, Q9UDY2): below the threshold; pKd (TX1BP3, O14907): 4.23"
below the threshold,below the threshold,below the threshold,3.98,below the threshold,4.86,4.09,4.44,4.37,5.33,below the threshold,below the threshold,4.46,below the threshold,below the threshold,3.95,4.96,below the threshold,below the threshold,4.17,"RRISSLESEV [GRIN2C, Q14957]","pKd (PICK1, Q9NRD5): below the threshold; pKd (RADIL, Q96JH8): below the threshold; pKd (SNTB1, Q13884): 4.64; pKd (TJP1_2, Q07157): below the threshold; pKd (TJP2_1, Q9UDY2): below the threshold; pKd (TX1BP3, O14907): 5"
